The text below walks through data of patent US20220073611A1 (LANKENAU INSTITUTE FOR MEDICAL RESEARCH, published 2022).

Assay [1] has as its target T1, NR1 ATD fusion protein on 293T-ATD cells (human).
T1 construct: also called HEK293T-ATD; GluN1-ATD fused to the PDGF receptor transmembrane domain
The assay can be described thus: flow cytometry on 293T-ATD cells, co-stained with commercial anti-NR1 mAb. Here is the method:
Primary antibodies included the BIOORBYT APC-labeled NR1 mAb at 10 μg/mL, an ALEXA FLUOR 488 labeled Myc tag mAb at 2 μg/mL (16-308, Millipore, Billerica, Mass.) three human IgG mAbs (5 μg/mL) isolated from a patient with ANRE (5F5, 2G6, 1D1) and the 6A isotype control mAb¹⁴. As a secondary antibody for the human mAbs, we used a FITC-conjugated F(ab′)2 goat anti-human IgG (109-096-008, Jackson ImmunoResearch, West Grove, Pa.). Cells were assayed with a BD FACSCANTO II (Becton Dickson, Franklin Lakes, N.J.). Data were analyzed using FLOWJO 8.8.7. Software (Tree Star, Ashland, Oreg.).

In assay [2] the target is T2, TEV protease-mobilized soluble ATD (human, UniProt Q05586 19-561, biotinylated (Sulfo-NHS-Biotin) in the titration on plate-bound 5F5).
T2 construct: also called mobilized ATD; plate-adherent ATD
T2 sequence (Q05586 other isoform, or with tags, fused parts or gaps): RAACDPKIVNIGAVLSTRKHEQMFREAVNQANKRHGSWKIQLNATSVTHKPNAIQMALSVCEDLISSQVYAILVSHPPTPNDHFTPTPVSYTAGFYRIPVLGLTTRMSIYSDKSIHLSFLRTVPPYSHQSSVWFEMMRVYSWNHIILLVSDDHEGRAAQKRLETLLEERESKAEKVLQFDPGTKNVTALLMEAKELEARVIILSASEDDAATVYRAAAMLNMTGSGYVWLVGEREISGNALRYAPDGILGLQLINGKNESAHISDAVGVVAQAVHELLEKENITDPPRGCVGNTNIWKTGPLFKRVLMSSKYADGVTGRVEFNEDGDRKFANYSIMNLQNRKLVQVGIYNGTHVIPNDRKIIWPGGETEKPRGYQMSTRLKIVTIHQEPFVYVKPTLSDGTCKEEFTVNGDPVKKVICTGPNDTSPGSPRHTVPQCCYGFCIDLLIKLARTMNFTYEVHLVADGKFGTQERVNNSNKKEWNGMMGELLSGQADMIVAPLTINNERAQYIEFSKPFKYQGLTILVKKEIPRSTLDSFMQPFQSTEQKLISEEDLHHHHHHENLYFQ
Kind of assay: ELISA, ATD captured on the plate by a Myc tag antibody. Here is the method: To test binding of human NR1 antibodies to plate-adherent ATD, we added 5 μg/mL Myc antibody (C3956, Sigma-Aldrich) (100 μl/well) to Black 96-well plates (12-566-24, Thermo Fisher) overnight, washed the plates 3 times with PBST, blocked with 5% inactivated fetal bovine serum and 3% Goat serum (Invitrogen) in PBST for 1 h at 37° C., washed 3 times, added 5 μg/mL ATD, and then incubated for 1 h at 37° C. and washed 3 more times. We added human mAbs, 5F5, 2G6, 1D1, and control isotype 6A at 5 μg/mL (100 μl/well), or 5 μg/mL anti-NR1 mAb (MAB 1586 RUHL, Millipore), in triplicate samples, and incubated for 1 h at 37° C. After three additional PBST washes, secondary antibodies were added, either an anti-human IgG HRP conjugate (9040-05 Southern Biotech, Birmingham, Ala.) or anti-mouse IgG HRP conjugate (1010-05, Southern Biotech), at 1:2000 and incubated for 1 h at 37° C., followed by 3 washes. Super Signal ELISA Femto Substrate was used for detection. Data was collected in the Biotek SYNERGY II Microplate reader and analyzed with Microsoft Excel.

T1 sequence (chain, as listed by the source limits assumed): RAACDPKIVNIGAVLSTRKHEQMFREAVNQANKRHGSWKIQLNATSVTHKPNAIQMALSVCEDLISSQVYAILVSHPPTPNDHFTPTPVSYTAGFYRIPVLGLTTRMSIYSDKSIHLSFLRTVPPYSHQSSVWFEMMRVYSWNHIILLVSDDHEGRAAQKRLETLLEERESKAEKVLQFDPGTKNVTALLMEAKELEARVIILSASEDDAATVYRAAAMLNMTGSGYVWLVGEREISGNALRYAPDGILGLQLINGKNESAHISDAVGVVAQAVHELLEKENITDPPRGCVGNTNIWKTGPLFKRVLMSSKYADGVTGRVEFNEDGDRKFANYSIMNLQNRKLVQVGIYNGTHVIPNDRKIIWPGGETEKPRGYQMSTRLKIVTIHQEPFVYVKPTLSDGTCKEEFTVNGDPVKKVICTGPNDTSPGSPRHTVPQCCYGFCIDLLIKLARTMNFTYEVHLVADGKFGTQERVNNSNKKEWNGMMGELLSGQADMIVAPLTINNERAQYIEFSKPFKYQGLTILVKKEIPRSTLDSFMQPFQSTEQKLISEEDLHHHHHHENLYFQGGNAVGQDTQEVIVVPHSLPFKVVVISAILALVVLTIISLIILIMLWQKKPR

B1: mAb 5F5 (antibody, V domains shown)
VH: QVQLVESGGGVVRPGGSLRLSCAASGFTFSTYSLHWVRQAPGKGLEWVGVILYDGSKKYYADSVRGRFTISRDNSKSTLNLDMSSLRPDDTAVYYCARDPIAVAPRPSGMVPQGFDYWGQGTLVTVSS
VL: QSVVTQPPSASGTPGQRVTISCSGSSSNIGRNFVFWYRQLPGTAPKVLIYKNIQRPSGVPDRISGSRSGSSASLAISGLRSEDEADYYCASWDDSLSGVVFGGGTKLTVL
notes: Biotinylated or CypHer5E-labelled in some assays; also called SFS; 5G5
B1: in assay [1], the “Percent GluN1 positive 293T-ATD cells bound” value was determined as 90.5% and the double positive cells was 62.3%. For the same molecule, the binding result in assay [2] is recorded as “binds”.

B2: mAb 2G6 (antibody, V domains shown)
VH: QVQLQESGGGVVQPGRSLRLSCAASGFSFNAFAMHWVRQAPGKGLEWVARISHYGSDDYYADSVKGRFTISRDNSQNTLFLQMNSLKAEDTGVYYCWRGFTLVRGVISRNPINRFSGMDVWGQGTTVTVS
VL: SYELMQPPSVSVSPGQTARITCSGDALPKKYAYWYQQKSGQAPILVIYEDNKRPSGIPERFSGSSSGTMATLTISGAQVEDEADYFCYSTDSSGNHGVFGGGTKLTVL
notes: Human IgG lambda mAb from a hybridoma of an ANRE patient; Biotinylated or CypHer5E-labelled in some assays; also called 2C6; 2G6-biotin
For the molecule B2, in assay [1], the “Percent GluN1 positive 293T-ATD cells bound” value was found to be 58.8% and the double positive cells is 40.5%. Besides, the binding result in assay [2] is on record as “binds”.

B3: mAb 1D1 (antibody, V domains shown)
VH: LVQLVESGGGVVQSGRSLRLSCAASGFAFHTFTIHWVRQAPGKGLDWVTAIYFDGTKKYYADSVKGRFTVSRDNSKNTVYLQMNGLRGEDTAVYYCARARYSYGLSFDYWGQGTPVTVSS
VL: QSVVTQPPSVSAAPGQKVTISCSASSSYLGSNYVSWYQQLPGTAPKLLIYDNNKRSSGISDRFSGSKSGTSATLDITGLQTGDEADYYCGAWDSSLSVVVFGGGTKLTVL
notes: Human IgG mAb from an ANRE patient; also called 1G1; 1DA
Take B3: in assay [1], the “Percent GluN1 positive 293T-ATD cells bound” value stood at 53.7% and the double positive cells stood at 37%. In assay [2], the binding result was “binds”.
